Consider two molecules from publication doi:10.1101/302299.

Data set [1] has as its target T1, AtERF96 WT (Arabidopsis thaliana, UniProt Q9LSX0 1-131). In words: EMSA. (Mobility shift assays separate free from complexed probe on a gel.)
Data set [2] concerns the target T1, AtERF96 WT. The experiment in a line: X-ray crystallography.

T1 sequence (Q9LSX0 whole entry): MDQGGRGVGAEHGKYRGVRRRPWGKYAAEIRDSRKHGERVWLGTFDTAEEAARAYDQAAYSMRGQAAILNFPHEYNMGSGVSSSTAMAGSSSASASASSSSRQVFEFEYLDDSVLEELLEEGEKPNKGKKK

B1: GCC11 probe (dsDNA)
DNA 1: TAGCCGCCAGC
DNA 2: GCTGGCGGCTA
For the molecule B1, in the data set with AtERF96 WT [1], the binding result is “binds”.

B2: GCC11 (crystal) (dsDNA)
DNA 1: TAGCCGCCAGC
DNA 2: GCTGGCGGCTA
As for B2, in the data set with AtERF96 WT [2], the binding result is “binds”.
